Source: patent US12072338B2, “Pharmaceutical peptides for the treatment of inflammatory diseases” (PROTAGONISTS LTD., priority 2007, dated 2024)

Columns and labels:
[1] = target: T1, Eotaxin (Homo sapiens, UniProt P51671); experiment: Micro-array analysis of chemokine binding peptides: Eotaxin
T1 construct: purchased 300-21
Experimental: (§1) (1) Printing: Chemokine (CK) solution (in water) was serially diluted with Print Reagent (GenTel BioSurfaces USA) to final concentrations of 50 μg and 25 μg/ml. BSA/BSA-Biotin control solutions (in water) were diluted with Print Reagent to 100 μg/ml. Amplified stock of M13 phage control (M13KEgIII Cloning Vector, New England Biolabs, Cat.No.E8101S) was stored in Tris Buffered Saline (TBS; pH7.5, 4° C.) and diluted with Print Reagent to the working titre (10^8 pfu/μl). An automated spotting robot (16 pin print tool, 0.4 mm head; BioRobotics, UK) was used to print the CK/BSA control/M13 control, 5 repeats per sample (CK 25 μg/ml and 50 μg/ml; BSA 100 μg/ml; M13 20 μl), on PATH Protein Microarray Slides (GenTel, Prod.No. 2-1005/-1025) at […], and 50-70% relative humidity. Printed micro-array slides were stored at Room Temperature (RT) or 4° C. for at least 24 h before use.
(§2) (2) Blocking: Block Buffer (500 μl/partition; PATHblock, GenTel, Prod.No. 2-1014) was applied to the slide for 1 hour at room temp (RT). After removal of Block Buffer, the slide was air dried for 25 minutes;
(§3) (3) Phage Presented Peptide Binding: Amplified recombinant phage stock was stored in TBS and diluted with Wash Buffer to working titer (10^7 pfu/μl). Recombinant phage suspension (300 μl) was applied per partition and incubated at RT for 1 hour with gentle agitation.
(§4) (4) First Washing: The slides were washed twice with Wash Buffer 300 μl/partition).
(§5) (5) Primary Antibody (Ab) Labeling: The slides were incubated with the Primary Ab (1 mg/ml diluted ×2500 (Wash Reagent), 300 μl; Mouse Anti-M13 monoclonal Ab; Amersham Biosciences, UK; Product Code 27-9420-01) for 45 minutes at RT.
(§6) (6) Second Washing: The slides were washed twice with Wash Buffer (300 μl/partition).
(§7) (7) Secondary Ab Labeling: The slides were incubated with Secondary Ab (1.5 mg/ml diluted ×5000 (Wash Reagent), 300 μl; Cy3-conjugated AffiniPure Goat Anti-Mouse IgG; Jackson ImmunoReserch Labs, USA; Product Code 115-165-062).
(§8) (8) Third Washing: The slides were washed twice with Wash Buffer (300 μl/partition).
(§9) (9) Rinse: the slides were rinsed twice with Rinse Buffer (PATHrinse, GenTel, Prod.No. 2-1018) then dried well.
(§10) (10) Scanning: The peptide-bound, labeled slide was scanned (Laser Intensity 80%, Gain 80%, Resolution 10 μm) with a ScanArray Life Scanner (Packard BioChip Technologies, USA).
(§11) (11) Analysis: Quantitative analysis of micro-array was performed by the SpotReader program of Niles Scientific (USA) and presented as Relative Fluorescence (RF) as a function of CK concentration. Micro-array readout (Cy3 fluorescence) was quantified to determine the relative binding affinities of a CBP for the CKs and by inference, the specificity of the CBP for binding to a CK.

[2] = target: T2, IP-10 (Homo sapiens, UniProt P02778); experiment: Micro-array analysis of chemokine binding peptides: IP-10
T2 construct: purchased 300-12
T2 sequence (P02778 22-98): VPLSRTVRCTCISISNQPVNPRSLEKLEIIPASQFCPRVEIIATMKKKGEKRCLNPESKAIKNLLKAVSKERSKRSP
Experimental: as §1, §2, §3, §4, §5, §6, §7, §8, §9, §10, §11

[3] = target: T3, SDF1-β (Homo sapiens, UniProt P48061); experiment: Micro-array analysis of chemokine binding peptides: SDF1-β
T3 construct: purchased 300-28b
Experimental: as §1, §2, §3, §4, §5, §6, §7, §8, §9, §10, §11

[4] = target: T4, BCA-1 (Homo sapiens, UniProt O43927); experiment: Micro-array analysis of chemokine binding peptides: BCA-1
T4 construct: purchased 300-47
T4 sequence (O43927 23-109): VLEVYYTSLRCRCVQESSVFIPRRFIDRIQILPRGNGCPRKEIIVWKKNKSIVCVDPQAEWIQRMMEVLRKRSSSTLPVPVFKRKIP
Experimental: as §1, §2, §3, §4, §5, §6, §7, §8, §9, §10, §11

[5] = target: T5, Mig (Homo sapiens, UniProt Q07325); experiment: Micro-array analysis of chemokine binding peptides: Mig
T5 construct: purchased 300-26
T5 sequence (Q07325 23-125): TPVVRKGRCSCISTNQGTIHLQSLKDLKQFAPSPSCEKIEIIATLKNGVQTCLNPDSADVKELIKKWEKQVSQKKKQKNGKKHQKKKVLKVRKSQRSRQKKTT
Experimental: as §1, §2, §3, §4, §5, §6, §7, §8, §9, §10, §11

[6] = target: T6, I-309 (Homo sapiens, UniProt P22362); experiment: Micro-array analysis of chemokine binding peptides: I-309
T6 construct: purchased 300-37
T6 sequence (P22362 24-96): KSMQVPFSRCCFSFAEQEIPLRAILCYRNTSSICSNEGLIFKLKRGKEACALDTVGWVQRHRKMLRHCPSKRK
Experimental: as §1, §2, §3, §4, §5, §6, §7, §8, §9, §10, §11

[7] = target: T7, Lymphotactin (Homo sapiens, UniProt P47992); experiment: Micro-array analysis of chemokine binding peptides: Lymphotactin
T7 construct: purchased 300-20
T7 sequence (P47992 22-114): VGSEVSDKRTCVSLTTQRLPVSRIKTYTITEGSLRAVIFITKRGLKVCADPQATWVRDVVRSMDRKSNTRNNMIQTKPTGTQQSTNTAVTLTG
Experimental: as §1, §2, §3, §4, §5, §6, §7, §8, §9, §10, §11

[8] = target: T8, SDF1-α (Homo sapiens, UniProt P48061); experiment: Micro-array analysis of chemokine binding peptides: SDF1-α
T8 construct: purchased 300-28a
Experimental: as §1, §2, §3, §4, §5, §6, §7, §8, §9, §10, §11

[9] = target: T9, Eotaxin 3 (Homo sapiens, UniProt Q9Y258); experiment: Micro-array analysis of chemokine binding peptides: Eotaxin 3
T9 construct: purchased 300-48
T9 sequence (Q9Y258 24-94): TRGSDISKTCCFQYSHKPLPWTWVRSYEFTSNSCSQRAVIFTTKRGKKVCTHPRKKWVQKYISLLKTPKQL
Experimental: as §1, §2, §3, §4, §5, §6, §7, §8, §9, §10, §11

[10] = target: T10, TECK (Homo sapiens, UniProt O15444); experiment: Micro-array analysis of chemokine binding peptides: TECK
T10 construct: purchased 300-45
T10 sequence (O15444 24-150): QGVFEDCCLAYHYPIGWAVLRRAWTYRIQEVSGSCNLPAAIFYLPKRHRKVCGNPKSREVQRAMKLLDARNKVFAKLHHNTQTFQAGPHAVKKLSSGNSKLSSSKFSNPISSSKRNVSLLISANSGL
Experimental: as §1, §2, §3, §4, §5, §6, §7, §8, §9, §10, §11

[11] = target: T11, Eotaxin 2 (Homo sapiens, UniProt O00175); experiment: Micro-array analysis of chemokine binding peptides: Eotaxin 2
T11 construct: purchased 300-33
T11 sequence (O00175 27-119): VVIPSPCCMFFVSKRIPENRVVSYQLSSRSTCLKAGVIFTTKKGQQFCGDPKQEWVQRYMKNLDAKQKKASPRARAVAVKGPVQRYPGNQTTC
Experimental: as §1, §2, §3, §4, §5, §6, §7, §8, §9, §10, §11

[12] = target: T12, MCP-2 (Homo sapiens, UniProt P80075); experiment: Micro-array analysis of chemokine binding peptides: MCP-2; conditions: limit = start of the upper 75% of that peptide's response range
T12 construct: purchased 300-15
T12 sequence (P80075 24-99): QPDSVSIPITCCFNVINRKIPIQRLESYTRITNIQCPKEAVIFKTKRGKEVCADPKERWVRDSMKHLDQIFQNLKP
Experimental: as §1, §2, §3, §4, §5, §6, §7, §8, §9, §10, §11

[13] = target: T13, I-TAC (Homo sapiens, UniProt O14625); experiment: Micro-array analysis of chemokine binding peptides: I-TAC
T13 construct: purchased 300-46
T13 sequence (O14625 22-94): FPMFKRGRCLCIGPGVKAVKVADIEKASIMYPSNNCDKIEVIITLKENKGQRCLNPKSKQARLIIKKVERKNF
Experimental: as §1, §2, §3, §4, §5, §6, §7, §8, §9, §10, §11

[14] = target: T14, MCP-4 (Homo sapiens, UniProt Q99616); experiment: Micro-array analysis of chemokine binding peptides: MCP-4; conditions: limit = start of the upper 75% of that peptide's response range
T14 construct: purchased 300-24
Experimental: as §1, §2, §3, §4, §5, §6, §7, §8, §9, §10, §11

[15] = target: T15, MCP-1 (Homo sapiens, UniProt P13500); experiment: Micro-array analysis of chemokine binding peptides: MCP-1; conditions: limit = start of the upper 75% of that peptide's response range
T15 construct: purchased 300-04
Experimental: as §1, §2, §3, §4, §5, §6, §7, §8, §9, §10, §11

[16] = target: T16, Exodus-2 (Homo sapiens, UniProt O00585); experiment: Micro-array analysis of chemokine binding peptides: Exodus-2
T16 construct: purchased 300-35
T16 sequence (O00585 24-134): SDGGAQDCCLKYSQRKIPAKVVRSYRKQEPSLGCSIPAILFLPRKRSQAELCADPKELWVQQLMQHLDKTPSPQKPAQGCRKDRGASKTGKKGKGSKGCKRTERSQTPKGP
Experimental: as §1, §2, §3, §4, §5, §6, §7, §8, §9, §10, §11

[17] = target: T17, RANTES (Homo sapiens, UniProt P13501); experiment: Micro-array analysis of chemokine binding peptides: RANTES
T17 construct: purchased 300-06
T17 sequence (P13501 24-91): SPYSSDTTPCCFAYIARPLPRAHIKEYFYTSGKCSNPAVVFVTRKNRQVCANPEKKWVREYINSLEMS
Experimental: as §1, §2, §3, §4, §5, §6, §7, §8, §9, §10, §11

[18] = test system: IL-8; experiment: Micro-array analysis of chemokine binding peptides: IL-8; conditions: limit = start of the upper 75% of that peptide's response range
Experimental: as §1, §2, §3, §4, §5, §6, §7, §8, §9, §10, §11

[19] = target: T18, GRO-β (Homo sapiens, UniProt P19875); experiment: Micro-array analysis of chemokine binding peptides: GRO-β; conditions: limit = start of the upper 75% of that peptide's response range
T18 construct: purchased 300-39
T18 sequence (P19875 35-107): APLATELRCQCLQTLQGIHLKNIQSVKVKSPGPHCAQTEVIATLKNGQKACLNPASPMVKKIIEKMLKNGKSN
Experimental: as §1, §2, §3, §4, §5, §6, §7, §8, §9, §10, §11

[20] = target: T19, Fractalkine (Homo sapiens, UniProt P78423); experiment: Micro-array analysis of chemokine binding peptides: Fractalkine
T19 construct: purchased 300-31
T19 sequence (P78423 25-100 limits assumed): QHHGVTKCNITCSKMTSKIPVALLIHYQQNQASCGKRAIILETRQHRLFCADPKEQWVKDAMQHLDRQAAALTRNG
Experimental: as §1, §2, §3, §4, §5, §6, §7, §8, §9, §10, §11

[21] = limit = start of the upper 75% of that peptide's response range

T14 sequence (Q99616 17-98): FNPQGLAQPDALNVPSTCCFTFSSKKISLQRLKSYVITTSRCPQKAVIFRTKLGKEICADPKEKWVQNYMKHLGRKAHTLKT
T1 sequence (P51671 24-97): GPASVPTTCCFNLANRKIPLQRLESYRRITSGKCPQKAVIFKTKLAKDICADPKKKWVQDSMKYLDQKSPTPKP
T15 sequence (P13500 24-99): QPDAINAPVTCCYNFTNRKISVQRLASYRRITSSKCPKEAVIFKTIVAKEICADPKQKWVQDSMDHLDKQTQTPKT
Sequence of IL-8 (P10145 28-99 limits assumed): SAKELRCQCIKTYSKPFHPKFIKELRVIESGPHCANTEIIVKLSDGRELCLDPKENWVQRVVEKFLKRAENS
T8 sequence (P48061 22-89 limits assumed): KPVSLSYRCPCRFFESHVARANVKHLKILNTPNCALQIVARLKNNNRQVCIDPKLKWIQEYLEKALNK
T3 sequence (P48061 22-93): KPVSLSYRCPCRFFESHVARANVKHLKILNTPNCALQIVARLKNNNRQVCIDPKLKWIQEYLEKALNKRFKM

Sequence | binding to Eotaxin, stated in words [1] | binding to BCA-1, stated in words [4] | binding to Lymphotactin, stated in words [7] | binding to Eotaxin 3, stated in words [9] | binding to TECK, stated in words [10] | binding to MCP-2 with relatively high affinity (Relative Fluorescence Units) [12] | binding to MCP-4 with relatively high affinity (Relative Fluorescence Units) [14] | binding to MCP-1 with relatively high affinity (Relative Fluorescence Units) [15] | binding to Exodus-2, stated in words [16] | also measured
WVFGAAACK [Ph-p8.6] | bound | bound | bound | bound | bound | > 15,000 RFU | > 15,000 RFU | > 15,000 RFU | bound | binding to IP-10, stated in words [2]: bound; binding to SDF1-β, stated in words [3]: bound; binding to Mig, stated in words [5]: bound; binding to I-309, stated in words [6]: bound; binding to SDF1-α, stated in words [8]: bound; binding to Eotaxin 2, stated in words [11]: bound; binding to I-TAC, stated in words [13]: bound
WVFGHGMCK [Ph-p25] | bound | bound | bound | bound | bound | > 15,000 RFU | > 15,000 RFU | > 15,000 RFU | bound | binding to RANTES, stated in words [17]: bound; binding to IP-10 with relatively high affinity (Relative Fluorescence Units) [2, 21]: > 15,000 RFU; binding to Mig with relatively high affinity (Relative Fluorescence Units) [5, 21]: > 15,000 RFU; binding to IL-8 with relatively high affinity (Relative Fluorescence Units) [18]: > 15,000 RFU; binding to GRO-β with relatively high affinity (Relative Fluorescence Units) [19]: > 15,000 RFU; binding to Fractalkine, stated in words [20]: bound
